{"source": "the RNAGym collection of RNA variant scans (doi:10.1073/pnas.2313332121)", "parents": {"B1": {"name": "TPR 5TU (parent)", "chain": "GGAUCUUCUCGAUCUAACAAAAAAGACAAAUCUGCCACAAAGCUUGAGAGCAUCUUCGGAUGCAGAGGCGGCAGCCUUCGGUGGCGCGAUAGCGCCAACGUUCUCAACUAUGACACGCAAAACGCGUGCUCCGUUGAAUGGAGUUUAUCAUG"}}, "note": "Variants at the floor of the assay were thinned out."}
{"variants_of": "B1", "assay": "polymerase ribozyme fitness, log enrichment relative to wild type (log ratio); higher = more active; in vitro selection for triplet polymerase activity", "procedure,_shortened": "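Libraries of mutants in each subunit of a heterodimeric triplet polymerase ribozyme were generated by PCR and transcribed. In triplicate, each went through one in vitro selection round: annealing with biotinylated primer, partner subunit and triplets; frozen incubation at −7 °C; gel excision of extended constructs; streptavidin-bead capture; RT-PCR. Fitness, taken from Illumina sequencing of input and output libraries, is the logarithm of a genotype's enrichment over wild-type enrichment, averaged across replicates with inverse-variance weights. The logarithm is base 2, and genotypes needed ≥10 input reads and ≥1 read per output to be kept.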"}
{"variant": "GGAUCUUCUCGAUCUAACAAAAAAGACAAAUCUGCCACAAAGCUUGAGAGCAUCUUCGGAUGCAGAGGCGGCAGCCUUCGGUGGCGCGAUAGCGCGAACGUUCUCAACUAUGACACGCAGAACGCGUGCUCCGUUGAAUGGAGUUUAUCAUG", "polymerase ribozyme fitness (log ratio)": -2}
{"variant": "GGAUCUUCUCGAUCUAACAAAAAAGACAAAUCUGCCACAAAGCUUGAGAGCAUCUUCGGAUGCAGAGGCGGCAGCCUUCGGUGGCGCGAUAGCGCGAACGUUCUCAACUAUGACACGCACAACGCGUGCUCCGUUGAAUGGAGUUUAUCAUG", "polymerase ribozyme fitness (log ratio)": 0.168}
{"variant": "GGAUCUUCUCGAUCUAACAAAAAAGACAAAUCUGCCACAAAGCUUGAGAGCAUCUUCGGAUGCAGAGGCGGCAGCCUUCGGUGGCGCGAUAGCGCGAUCGUUCUCAACUAUGACACGCAAAACGCGUGCUCCGUUGAAUGGAGUUUAUCAUG", "polymerase ribozyme fitness (log ratio)": -0.873}
{"variant": "GGAUCUUCUCGAUCUAACAAAAAAGACAAAUCUGCCACAAAGCUUGAGAGCAUCUUCGGAUGCAGAGGCGGCAGCCUUCGGUGGCGCGAUAGCGCAAACGUUCUCAACUAUGACACGCAAAACGCGUGCUCCGUUGAAUGGAGUUAAACAUG", "polymerase ribozyme fitness (log ratio)": -4.17}
{"variant": "GGAUCUUCUCGAUCUAACAAAAAAGACAAAUCUGCCACAAAGCUUGAGAGCAUCUUCGGAUGCAGAGGCGGCAGCCUUCGGUGGCGCGAUAGCGCGAACGUUCUCAACUAUGACGCGCAAAAAGCGUGCUCCGUUGAAUGGAGUUUUUCAUG", "polymerase ribozyme fitness (log ratio)": -0.404}
{"variant": "GGAUCUUCUCGAUCUAACAAAAAAGACAAAUCUGCCACAAAGCUUGAGAGCAUCUUCGGAUGCAGAGGCGGCAGCCUUCGGUGGCGCGAUAGCGCGAACGUUCUCAACUAUGACACGCAAAACGCGUGCUCCGUUGAAUGAAGUUUAUCAUG", "polymerase ribozyme fitness (log ratio)": -0.288}
{"variant": "GGAUCUUCUCGAUCUAACAAAAAAGACAAAUCUGCCACAAAGCUUGAGAGCAUCUUCGGAUGCAGAGGCGGCAGCCUUCGGUGGCGCGAUAGCGCGAACGUUCUCAACUAUGACACGCAAAACGCGUGCUCCGUUGUAUGGAGUUUAUCAUG", "polymerase ribozyme fitness (log ratio)": -4}
{"variant": "GGAUCUUCUCGAUCUAACAAAAAAGACAAAUCUGCCACAAAGCUUGAGAGCAUCUUCGGAUGCAGAGGCGGCAGCCUUCGGUGGCGCGAUAGCGCAAACGUUCUCAACUAUGACACGUAAAACGCGUGCUCCGUUGAAUGGAGUUUACCAUG", "polymerase ribozyme fitness (log ratio)": -2.57}
{"variant": "GGAUCUUCUCGAUCUAACAAAAAAGACAAAUCUGCCACAAAGCUUGAGAGCAUCUUCGGAUGCAGAGGCGGCAGCCUUCGGUGGCGCGAUAGCGCGAACGUACUCAACCAUGACACGCAAAACGCGUGCUCCGUUGAAUGGAGUUUAUCAUG", "polymerase ribozyme fitness (log ratio)": "≤ -4.2"}
{"variant": "GGAUCUUCUCGAUCUAACAAAAAAGACAAAUCUGCCACAAAGCUUGAGAGCAUCUUCGGAUGCAGAGGCGGCAGCCUUCGGUGGCGCGAUAGCGCGAACGUUCUCAACUAUGACACGCAAAACGCGUGCUCCGUUGAAUGGAGUUUAACAUG", "polymerase ribozyme fitness (log ratio)": -3.53}
{"variant": "GGAUCUUCUCGAUCUAACAAAAAAGACAAAUCUGCCACAAAGCUUGAGAGCAUCUUCGGAUGCAGAGGCGGCAGCCUUCGGUGGCGCGAUAGCGCGAACGUUCUCAACUAUAACACGCAAAACGCGUGCUCCGUUGAAUGGAGUUUAUCAUG", "polymerase ribozyme fitness (log ratio)": -4.07}
{"variant": "GGAUCUUCUCGAUCUAACAAAAAAGACAAAUCUGCCACAAAGCUUGAGAGCAUCUUCGGAUGCAGAGGCGGCAGCCUUCGGUGGCGCGAUAGCGCAAACGUUCUCAACUAUGACAUGCAAAACGCGUGCUCCGUUGAAUGGAGUUUAUCAUG", "polymerase ribozyme fitness (log ratio)": -0.662}
{"variant": "GGAUCUUCUCGAUCUAACAAAAAAGACAAAUCUGCCACAAAGCUUGAGAGCAUCUUCGGAUGCAGAGGCGGCAGCCUUCGGUGGCGCGAUAGCGCAAACGUUCUCAACUAUGACACGCAAAACGCGUGCUCCGUUGAAUGGAGUUUAUCCUG", "polymerase ribozyme fitness (log ratio)": -3.12}
{"variant": "GGAUCUUCUCGAUCUAACAAAAAAGACAAAUCUGCCACAAAGCUUGAGAGCAUCUUCGGAUGCAGAGGCGGCAGCCUUCGGUGGCGCGAUAGCGCGAACGUUCUCAACUAUGACACGCAAAACGCGUGCUCCGUUGAAUGGGGUGUUUCAUG", "polymerase ribozyme fitness (log ratio)": -2.85}
{"variant": "GGAUCUUCUCGAUCUAACAAAAAAGACAAAUCUGCCACAAAGCUUGAGAGCAUCUUCGGAUGCAGAGGCGGCAGCCUUCGGUGGCGCGAUAGCGCAAACGUUCUCAACUAUGACACGCAAAACGCGUGCUCCGUUGAAUGGAGUUUAUCAGG", "polymerase ribozyme fitness (log ratio)": "≤ -4.2"}
{"variant": "GGAUCUUCUCGAUCUAACAAAAAAGACAAAUCUGCCACAAAGCUUGAGAGCAUCUUCGGAUGCAGAGGCGGCAGCCUUCGGUGGCGCGAUAGCGCUAACGUUCUCAACUAUGACCCGCAAAACGCGUGCUCCGUUGAAUGGAGUUUAUCAUG", "polymerase ribozyme fitness (log ratio)": -2.68}
{"variant": "GGAUCUUCUCGAUCUAACAAAAAAGACAAAUCUGCCACAAAGCUUGAGAGCAUCUUCGGAUGCAGAGGCGGCAGCCUUCGGUGGCGCGAUAGCGCAAACGUUCUCAACUAUGACACGCAAAACGCGUGCUCCGCUGAGUGCAGUUUAUCAUG", "polymerase ribozyme fitness (log ratio)": -4.07}
{"variant": "GGAUCUUCUCGAUCUAACAAAAAAGACAAAUCUGCCACAAAGCUUGAGAGCAUCUUCGGAUGCAGAGGCGGCAGCCUUCGGUGGCGCGAUAGCGCUAGCGUUCUCAACUAUGACACGCAAAACGCGUGCUCCGUUGAAUGGAGUUUAUCAUG", "polymerase ribozyme fitness (log ratio)": -1.3}
{"variant": "GGAUCUUCUCGAUCUAACAAAAAAGACAAAUCUGCCACAAAGCUUGAGAGCAUCUUCGGAUGCAGAGGCGGCAGCCUUCGGUGGCGCGAUAGCGCGAACGUUCUCAACUAUGACACGCAAAACGCGUGCUCCGUUGAAUGGAGUUCAUCAUG", "polymerase ribozyme fitness (log ratio)": -1.45}
